Test results published in the supplement of paper PMC9112550, “Optimization of the antimicrobial peptide Bac7 by deep mutational scanning” (BMC Biology, 2022).

Tested on: Escherichia coli TOP10
Assay: shrunken log2 fold change of peptide-encoding DNA abundance (4.5 h post-induction vs induction); higher = less antimicrobial activity (less host growth inhibition)
Details: time post-induction: 4.5 h; library: site-saturation at positions 5, 18, 19, 20
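Note: peptides expressed intracellularly from a pBAD plasmid library in pooled LB shake-flask culture, induced with 0.3% L-arabinose, DNA abundance read by NGS, three biological replicates, DESeq2 with apeglm shrinkage.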

| Sequence | shrunken log2 fold change |
| --- | --- |
| RRIRMRPPRLPRPRPRPSDQPRP | -0.198 |
| RRIRYRPPRLPRPRPRPTFVPRP | -0.0102 |
| RRIRIRPPRLPRPRPRPRPDPRP | 0.0926 |
| RRIRTRPPRLPRPRPRPHKHPRP | -0.417 |
| RRIRERPPRLPRPRPRPADDPRP | 0.000221 |
| RRIRCRPPRLPRPRPRPDCRPRP | -0.195 |
| RRIRSRPPRLPRPRPRPAQIPRP | -0.0853 |
| RRIRRRPPRLPRPRPRPTKEPRP | -0.0782 |
| RRIRYRPPRLPRPRPRPDMSPRP | -0.0894 |
| RRIRRRPPRLPRPRPRPVHFPRP | -0.278 |
| RRIRQRPPRLPRPRPRPQKWPRP | 0.0876 |
| RRIRIRPPRLPRPRPRPEHAPRP | 0.00666 |
| RRIRTRPPRLPRPRPRPTGLPRP | -0.0841 |
| RRIRYRPPRLPRPRPRPGAVPRP | 0.929 |
| RRIRTRPPRLPRPRPRPTRGPRP | 0.705 |
| RRIRVRPPRLPRPRPRPQMSPRP | -0.233 |
| RRIRQRPPRLPRPRPRPVMSPRP | -0.215 |
| RRIRGRPPRLPRPRPRPYEYPRP | 0.127 |
| RRIRHRPPRLPRPRPRPERRPRP | 0.0748 |
| RRIRMRPPRLPRPRPRPTHWPRP | 0.864 |
| RRIRIRPPRLPRPRPRPDIHPRP | -0.587 |
| RRIRDRPPRLPRPRPRPVQPPRP | 0.196 |
| RRIRQRPPRLPRPRPRPNNSPRP | -0.904 |
| RRIRHRPPRLPRPRPRPSFEPRP | -0.358 |
| RRIRNRPPRLPRPRPRPISRPRP | -0.612 |

| Sequence | shrunken log2 fold change |
| --- | --- |
| RRIRCRPPRLPRPRPRPDHNPRP | -0.239 |
| RRIRVRPPRLPRPRPRPSHCPRP | 0.109 |
| RRIRKRPPRLPRPRPRPELMPRP | 1.24 |
| RRIRRRPPRLPRPRPRPCWQPRP | 0.285 |
| RRIRWRPPRLPRPRPRPGFEPRP | 0.427 |
| RRIRFRPPRLPRPRPRPMTKPRP | 0.0716 |
| RRIRSRPPRLPRPRPRPYCTPRP | -0.256 |
| RRIRVRPPRLPRPRPRPKHGPRP | -0.0119 |
| RRIRNRPPRLPRPRPRPFLHPRP | -0.351 |
| RRIRRRPPRLPRPRPRPQRWPRP | -0.0703 |
| RRIRFRPPRLPRPRPRPDQTPRP | 0.0441 |
| RRIRYRPPRLPRPRPRPIILPRP | -0.605 |
| RRIRDRPPRLPRPRPRPHCVPRP | 0.017 |
| RRIRDRPPRLPRPRPRPYHFPRP | -0.277 |
| RRIRPRPPRLPRPRPRPKTNPRP | 0.0176 |
| RRIRHRPPRLPRPRPRPCMIPRP | -0.277 |
| RRIRNRPPRLPRPRPRPVMEPRP | -0.173 |
| RRIRVRPPRLPRPRPRPRDHPRP | 0.172 |
| RRIRTRPPRLPRPRPRPVLWPRP | 0.117 |
| RRIRHRPPRLPRPRPRPHWRPRP | 0.125 |
| RRIRYRPPRLPRPRPRPSQPPRP | -0.0421 |
| RRIRFRPPRLPRPRPRPHDRPRP | 0.0063 |
| RRIRSRPPRLPRPRPRPAVPPRP | 0.168 |
| RRIRNRPPRLPRPRPRPGGSPRP | 0.407 |
| RRIRSRPPRLPRPRPRPYNKPRP | -1.01 |

| Sequence | shrunken log2 fold change |
| --- | --- |
| RRIRCRPPRLPRPRPRPQMGPRP | -0.273 |
| RRIRWRPPRLPRPRPRPNMSPRP | -0.00987 |
| RRIRGRPPRLPRPRPRPDFIPRP | 0.157 |
| RRIRKRPPRLPRPRPRPWIWPRP | 1.96 |
| RRIRLRPPRLPRPRPRPWSWPRP | 0.0711 |
| RRIRLRPPRLPRPRPRPPYNPRP | -0.689 |
| RRIRFRPPRLPRPRPRPYIQPRP | -0.841 |
| RRIRWRPPRLPRPRPRPRGDPRP | 1.03 |
| RRIRHRPPRLPRPRPRPHYMPRP | -0.854 |
| RRIRNRPPRLPRPRPRPEAIPRP | 0.113 |
| RRIRLRPPRLPRPRPRPKHGPRP | -0.0363 |
| RRIRCRPPRLPRPRPRPYPLPRP | -0.191 |
| RRIRKRPPRLPRPRPRPMNNPRP | -0.0152 |
| RRIRHRPPRLPRPRPRPLMLPRP | -0.0972 |
| RRIRPRPPRLPRPRPRPGHMPRP | -0.238 |
| RRIRKRPPRLPRPRPRPGKYPRP | 0.0356 |
| RRIRYRPPRLPRPRPRPPYAPRP | -0.265 |
| RRIRWRPPRLPRPRPRPCNKPRP | -0.738 |
| RRIRRRPPRLPRPRPRPPIPPRP | 0.271 |
| RRIRLRPPRLPRPRPRPEISPRP | 0.099 |
| RRIRSRPPRLPRPRPRPWDVPRP | 0.166 |
| RRIRCRPPRLPRPRPRPPYYPRP | -0.314 |
| RRIRHRPPRLPRPRPRPHVNPRP | -0.183 |
| RRIRHRPPRLPRPRPRPKKIPRP | -0.129 |
| RRIRIRPPRLPRPRPRPRSWPRP | 0.394 |

| Sequence | shrunken log2 fold change |
| --- | --- |
| RRIRLRPPRLPRPRPRPDYSPRP | 0.14 |
| RRIRPRPPRLPRPRPRPMGYPRP | -0.0838 |
| RRIRHRPPRLPRPRPRPVVQPRP | 0.13 |
| RRIRDRPPRLPRPRPRPPISPRP | 0.024 |
| RRIRARPPRLPRPRPRPHECPRP | 0.423 |
| RRIRNRPPRLPRPRPRPRQFPRP | 0.0733 |
| RRIRTRPPRLPRPRPRPYKWPRP | -0.0875 |
| RRIRQRPPRLPRPRPRPWGIPRP | 0.0274 |
| RRIRLRPPRLPRPRPRPMEYPRP | 0.015 |
| RRIRFRPPRLPRPRPRPCFWPRP | 0.0499 |
| RRIRRRPPRLPRPRPRPMLTPRP | 0.211 |
| RRIRNRPPRLPRPRPRPACWPRP | 0.449 |
| RRIRMRPPRLPRPRPRPCAEPRP | 2.31 |
| RRIRMRPPRLPRPRPRPPPPPRP | 2.05 |
| RRIRNRPPRLPRPRPRPKVIPRP | -0.264 |
| RRIRARPPRLPRPRPRPIRLPRP | -0.0928 |
| RRIRCRPPRLPRPRPRPHTKPRP | -0.309 |
| RRIRERPPRLPRPRPRPILFPRP | -0.57 |
| RRIRQRPPRLPRPRPRPMKNPRP | -0.124 |
| RRIRDRPPRLPRPRPRPNVYPRP | 0.0576 |
| RRIRCRPPRLPRPRPRPIRGPRP | 0.0532 |
| RRIRPRPPRLPRPRPRPKHHPRP | -0.228 |
| RRIRFRPPRLPRPRPRPMGRPRP | 0.103 |
| RRIRERPPRLPRPRPRPYEIPRP | 0.0169 |
| RRIRHRPPRLPRPRPRPVIVPRP | -0.204 |

| Sequence | shrunken log2 fold change |
| --- | --- |
| RRIRQRPPRLPRPRPRPTWWPRP | 0.314 |
| RRIRVRPPRLPRPRPRPWTWPRP | -0.135 |
| RRIRRRPPRLPRPRPRPIAEPRP | 0.446 |
| RRIRARPPRLPRPRPRPNIIPRP | -0.248 |
| RRIRERPPRLPRPRPRPHDSPRP | -0.00973 |
| RRIRMRPPRLPRPRPRPHVWPRP | 0.281 |
| RRIRSRPPRLPRPRPRPTNIPRP | -0.434 |
| RRIRWRPPRLPRPRPRPCLSPRP | -0.15 |
| RRIRARPPRLPRPRPRPPLGPRP | 0.671 |
| RRIRCRPPRLPRPRPRPDRPPRP | 0.19 |
| RRIRYRPPRLPRPRPRPSHEPRP | -0.0704 |
| RRIRRRPPRLPRPRPRPYHPPRP | -0.34 |
| RRIRPRPPRLPRPRPRPYAYPRP | -0.192 |
| RRIRLRPPRLPRPRPRPHHDPRP | -0.694 |
| RRIRVRPPRLPRPRPRPPCMPRP | -0.0452 |
| RRIRDRPPRLPRPRPRPIIGPRP | -0.193 |
| RRIRSRPPRLPRPRPRPPVMPRP | 0.0439 |
| RRIRQRPPRLPRPRPRPHKQPRP | -0.608 |
| RRIRYRPPRLPRPRPRPRLSPRP | -0.0417 |
| RRIRTRPPRLPRPRPRPDENPRP | 0.0019 |
| RRIRVRPPRLPRPRPRPPVSPRP | 0.847 |
| RRIRERPPRLPRPRPRPNLWPRP | 0.0252 |
| RRIRVRPPRLPRPRPRPIQGPRP | 0.0292 |
| RRIRCRPPRLPRPRPRPIVVPRP | -0.34 |
| RRIRIRPPRLPRPRPRPESCPRP | -0.0796 |
